This note sets out measurements from PMC10014292.

What all share (conditions): glycan lost; control: wild type
Data set [1] in a line: whole-cell patch clamp, HEK-293T. (Patch clamp records ionic current or voltage across a cell membrane.)
Data set [2] can be described thus: Nppa, Rcan1 qPCR ± angiotensin II, rat cardiomyocytes. Background: Real-time PCR tracks product formation cycle by cycle.
Data set [3] in a line: cycloheximide chase, rate of YFP fluorescence decline.
The nature of data set [4]: NFAT promoter activity with TRPC6 antagonist.

B1: TRPC6: T221A (protein)
parent chain: MSQSPAFGPRRGSSPRGAAGAAARRNESQDYLLMDSELGEDGCPQAPLPCYGYYPCFRGSDNRLAHRRQTVLREKGRRLANRGPAYMFSDRSTSLSIEEERFLDAAEYGNIPVVRKMLEECHSLNVNCVDYMGQNALQLAVANEHLEITELLLKKENLSRVGDALLLAISKGYVRIVEAILSHPAFAEGKRLATSPSQSELQQDDFYAYDEDGTRFSHDVTPIILAAHCQEYEIVHTLLRKGARIERPHDYFCKCNDCNQKQKHDSFSHSRSRINAYKGLASPAYLSLSSEDPVMTALELSNELAVLANIEKEFKNDYKKLSMQCKDFVVGLLDLCRNTEEVEAILNGDVETLQSGDHGRPNLSRLKLAIKYEVKKFVAHPNCQQQLLSIWYENLSGLRQQTMAVKFLVVLAVAIGLPFLALIYWFAPCSKMGKIMRGPFMKFVAHAASFTIFLGLLVMNAADRFEGTKLLPNETSTDNAKQLFRMKTSCFSWMEMLIISWVIGMIWAECKEIWTQGPKEYLFELWNMLDFGMLAIFAASFIARFMAFWHASKAQSIIDANDTLKDLTKVTLGDNVKYYNLARIKWDPSDPQIISEGLYAIAVVLSFSRIAYILPANESFGPLQISLGRTVKDIFKFMVIFIMVFVAFMIGMFNLYSYYIGAKQNEAFTTVEESFKTLFWAIFGLSEVKSVVINYNHKFIENIGYVLYGVYNVTMVIVLLNMLIAMINSSFQEIEDDADVEWKFARAKLWFSYFEEGRTLPVPFNLVPSPKSLFYLLLKLKKWISELFQGHKKGFQEDAEMNKINEEKKLGILGSHEDLSKLSLDKKQVGHNKQPSIRSSEDFHLNSFNNPPRQYQKIMKRLIKRYVLQAQIDKESDEVNEGELKEIKQDISSLRYELLEEKSQNTEDLAELIRELGEKLSMEPNQEETNR
In the case of B1, the “other: channel current, other: percent increase in current” value in data set [1] is reported as “increases”. Also, the “other: response to angiotensin II” value in data set [2] is recorded as “no change”. For the same protein, in data set [3], the degradation_or_half_life entry is “decreases”. Further, in data set [4], the “other: antagonist sensitivity” value is given as “no change”.
